Results from patent publication CN117683122A (SHENZHEN BAY LABORATORY; UNIV TSINGHUA, dated 2024).

B1: 抗体B010 (antibody, V domains shown)
VH: QVQLLDSGGGLVQPGGSLRLSCAASGFTFSSYAMHWVRQAPGKGLEWVAVISYDGSNKYYADSVKGRFTISRDNSKNTLYLQMNSLRAEDTAVYYCAQGWFDYWGQGTTVTVSS
VL: NIQMTQSPSTLSASVGDRVTITCRASQSIGPWLAWYQQKPGKAPKLLIYKASSLESGVPSRFSGSGSGTEFTLTISSLQPEDFATYHCQQYKSYPYSFGQGTKVDIKR
B2: 抗体B019 (antibody, V domains shown)
VH: QVQLLESGGTLVQPGGSLRLSCAASGFSFRTHDMNWVRQAPGKGLEWVSHISSTGSTIYYADSVKGRFTISRDNAKNSLYLQMNSLRADDTAVYYCARDRFTIFGVGPPFYYMDVWGQGTLVTVSS
VL: DIQLTQSPSSLSASVGDRVTITCRASQGISSYLAWYQQKPGKAPKLLIYAASTLQSGVPSRFSGSGSGTDFTLTISSLQPEDFATYYCQQSYSTPRTFGQGTKVEIKR
B3: 抗体B026 (antibody, V domains shown)
VH: EVQLLESGGGVVQPGNSLRLSCAASGFTFSSYNMNWVRQAPGKGLEWVSSISSRSSYIYYADSVKGRFTISRDNAKNTLYLQMSSLRSEDTAVYFCVRRNGAFDIWGQGTMVTVSS
VL: DIQMTQSPSSLSASVGDRVTITCRASQSITTYLNWYQQKPGKAPKLLIYAASSLQSGVPSRFSGSGSGTDFTLTISSLQPEDFATYYCQQSYGIPRTFGQGTKVEIKR
B4: 抗体B083 (antibody, V domains shown)
VH: EVQLLESGGGVVRPGGSLRLSCAASGFTFGDYGMSWVRQAPGKGLEWVSGINWNGGSTGYADSVKGRFTISRDNAKNSLYLQMNSLRVEDSGVYYCARYGRVPDNWGQGTMVTVSS
VL: NIQLTQSPSSLSASVGDRVTITCRASQGVNNWLAWYQQKPGKAPKLLIYAASTLESGVPSRFSGSGSATDFTLTINGLQPEDFATYYCQQAKRFPWTFGQGTKVEIKR
B5: 抗体B089 (antibody, V domains shown)
VH: EVQLLESGGGVVQPGRSLRLSCAASGFTFSSYAMHWVRQAPGKGLEWVAVISYDGSNKYYADSVKGRFTISRDNSKNTLYLQMNSLRAEDTAVYYCARFSGAYSYGYGVYWGQGTPVTVSS
VL: DIQLTQSPSFLSASVGDNVTITCRASQGIASRLAWYQQKPGKAPNLLISSSSTLQSGVPSRFTGSGYGTEFTLTMNTLQPEDSATYYCQQLNSYPLTFGGGTKVEIKR
B6: 抗体B161 (antibody, V domains shown)
VH: QVQLLESGGGLVKPGGSLRLSCAASGFTFSSYSMSWVRQAPGKGLEWVSSISGGSDYIYYADPVRGRFTISRDNAKNSVYLQMNSLRAEDTAVYYCGRGITGIFNWGQGTPVTVSS
VL: DIQLTQSPSSLSASVGDRVTITCRASQSINNYLNWYQQKPGKAPKVLIYAASSLPRGVPSRFSGSGSGTDFTLTISSLQPEDFASYYCQQSYTSPLTFGQGTKVEVKR

These binders were tested against 重组猴痘病毒表面蛋白B6R-His (monkeypox virus, UniProt P0DTN2 20-279).

| Binder | Kd [nM] |
| --- | --- |
| B1 | < 1 |
| B2 | < 1 |
| B3 | < 1 |
| B4 | < 1 |
| B5 | < 1 |
| B6 | < 1 |
